Patent US20240247080A1, “GLP1/GIP/NPY2 RECEPTOR TRIPLE AGONISTS” (Boehringer Ingelheim International GmbH, priority 2022, published 2024)
Residue numbers refer to the chain shown, from its start. Starred links: 1 amine or outer side, 2 acyl side, 3 side chain; linkers in the order of their positions; H or OH if unused. Non-standard residues stand in square brackets, D forms with d. Groups on a side chain read outwards from the residue. No end group written: not given here. *: point of attachment. C20 diacid = O=C(O)CCCCCCCCCCCCCCCCCCC(=O)*; γGlu = O=C(O)[C@H](CCC(=O)[*:2])N[*:1]; εLys = N[C@@H](CCCCN[*:1])C(=O)[*:2]; AEEA = NCCOCCOCC(=O)O; Aib = CC(C)(N)C(=O)O

T1: GIP receptor (human (printed as hGIPR), UniProt P48546 22-466)
T1 sequence (looked up): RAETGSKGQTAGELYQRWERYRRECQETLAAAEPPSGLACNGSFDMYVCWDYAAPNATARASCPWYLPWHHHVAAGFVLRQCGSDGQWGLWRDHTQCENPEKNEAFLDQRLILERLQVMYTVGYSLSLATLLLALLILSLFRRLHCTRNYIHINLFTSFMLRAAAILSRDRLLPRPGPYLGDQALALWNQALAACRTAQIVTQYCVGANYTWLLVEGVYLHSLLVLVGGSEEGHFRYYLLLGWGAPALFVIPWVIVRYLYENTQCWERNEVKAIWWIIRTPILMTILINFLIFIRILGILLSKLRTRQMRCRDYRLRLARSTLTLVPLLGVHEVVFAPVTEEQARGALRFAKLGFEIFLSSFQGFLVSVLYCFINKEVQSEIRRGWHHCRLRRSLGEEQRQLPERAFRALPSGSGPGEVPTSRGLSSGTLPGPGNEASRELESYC

T2: NPY2 receptor (human (printed as hNPY2R), UniProt P49146 1-381)
T2 sequence (looked up): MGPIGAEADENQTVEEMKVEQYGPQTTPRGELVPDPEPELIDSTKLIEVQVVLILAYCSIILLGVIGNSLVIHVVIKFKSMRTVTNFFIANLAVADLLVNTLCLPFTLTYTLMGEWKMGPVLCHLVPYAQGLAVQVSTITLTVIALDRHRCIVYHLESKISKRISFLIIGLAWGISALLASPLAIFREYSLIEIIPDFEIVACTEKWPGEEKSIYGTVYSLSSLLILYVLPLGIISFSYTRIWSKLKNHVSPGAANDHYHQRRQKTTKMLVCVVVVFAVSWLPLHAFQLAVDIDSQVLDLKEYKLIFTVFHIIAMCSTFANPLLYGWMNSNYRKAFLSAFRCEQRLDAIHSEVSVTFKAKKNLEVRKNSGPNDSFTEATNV

B1: Compound 228 (peptide)
peptide: YXEGTFTSDYSIXLEKQAQXAFVQWLIKGGPSEGASLRHYYNWLTRQRY
modifications: Aib at 2, 13, 20; K28 side chain carries C20DA-gGlu-gGlu-gGlu-gGlu-gGlu-OEG-OEG; C-terminal amide
B2: Compound 233 (peptide)
peptide: B1 peptide with Q24E, G34P
modifications: Aib at 2, 13, 20; K28 side chain carries C20DA-gGlu-gGlu-gGlu-gGlu-gGlu-gGlu-eLys; C-terminal amide
B3: Compound 241 (peptide)
peptide: B1 peptide with Q24E, A35V
modifications: Aib at 2, 13, 20; K28 side chain carries C20DA-gGlu-gGlu-gGlu-gGlu-gGlu-gGlu-eLys; C-terminal amide
B4: Compound 234 (peptide)
peptide: B1 peptide with Y10L, Q24E
modifications: Aib at 2, 13, 20; K28 side chain carries C20DA-gGlu-gGlu-gGlu-gGlu-Glu-gGlu-eLys (so in the source); C-terminal amide
B5: Compound 232 (peptide)
peptide: B1 peptide with Q24E, E33Y
modifications: Aib at 2, 13, 20; K28 side chain carries C20DA-gGlu-gGlu-gGlu-gGlu-gGlu-gGlu-eLys; C-terminal amide
B6: Compound 237 (peptide)
peptide: B1 peptide with Q24E, A35E
modifications: Aib at 2, 13, 20; K28 side chain carries C20DA-gGlu-gGlu-gGlu-gGlu-gGlu-gGlu-eLys; C-terminal amide
B7: Compound 244 (peptide)
peptide: B1 peptide with Q24E, E33T
modifications: Aib at 2, 13, 20; K28 side chain carries C20DA-gGlu-gGlu-gGlu-gGlu-gGlu-gGlu-eLys; C-terminal amide

Target: GLP-1 receptor (human (printed as hGLP1R), UniProt P43220 24-463)
Assay: cell-based or functional assay

Row | Binder | EC50 hGLP1R 0.5% hP (CreLuc) | EC50 hGLP1R 100% hP (CreLuc)
1 | B1 | 0.12 nM | 4.18 nM
2 | B2 | 0.17 nM | 1.7 nM
3 | B3 | 0.77 nM | 9.65 nM
4 | B4 | 0.35 nM | 2.66 nM
5 | B5 | 0.21 nM | 4.88 nM
6 | B6 | 0.26 nM | 3.11 nM
7 | B7 | 0.19 nM | 5.98 nM
8 | Y[Aib]EGTFTSDYSI[Aib]LEKQAQ[Aib]AFVEWLIK([AEEA-AEEA-γGlu-γGlu-γGlu-γGlu-C20 diacid])GGPSEPASLRHYYNWLTRQRY-NH2 (also: TFA salt) [Compound 226] | 0.24 nM | 7.6 nM
9 | Y[Aib]EGTFTSDYSI[Aib]LEKQAQ[Aib]AFVEWLIK([εLys-γGlu-γGlu-γGlu-γGlu-γGlu-γGlu-γGlu-C20 diacid])GGPSSGASLRHYYNWLTRQRY-NH2 (also: TFA salt) [Compound 225] | 0.12 nM | 1.93 nM
10 | Y[Aib]EGTFTSDYSI[Aib]LEKQAQ[Aib]AFVQWLIK([εLys-Glu-Glu-Glu-Glu-Glu-C20 diacid])GGPSEGASLRHYYNWLTRQRY-NH2 (also: TFA salt) [Compound 240] | 0.14 nM | 6.74 nM
11 | Y[Aib]EGTFTSDYSI[Aib]LEKQAQ[Aib]AFVEWLIK([εLys-γGlu-γGlu-γGlu-γGlu-γGlu-C20 diacid])GGPEEGASLRHYYNWLTRQRY-NH2 (also: TFA salt) [Compound 230] | 0.29 nM | 8.23 nM

Target: T1, GIP receptor
Assay: cell-based or functional assay

Row | Binder | EC50 hGIPR 0.5% hP (CreLuc) | EC50 hGIPR 100% hP (CreLuc)
12 | B1 | 0.23 nM | 1.52 nM
13 | B2 | 0.08 nM | 0.75 nM
14 | B3 | 0.69 nM | 4.36 nM
15 | B4 | 0.74 nM | 3.27 nM
16 | B5 | 0.19 nM | 1.64 nM
17 | B6 | 0.1 nM | 1.17 nM
18 | B7 | 0.32 nM | 2.32 nM
19 | Y[Aib]EGTFTSDYSI[Aib]LEKQAQ[Aib]AFVEWLIK([AEEA-AEEA-γGlu-γGlu-γGlu-γGlu-C20 diacid])GGPSEPASLRHYYNWLTRQRY-NH2 (also: TFA salt) [Compound 226] | 0.43 nM | 2.6 nM
20 | Y[Aib]EGTFTSDYSI[Aib]LEKQAQ[Aib]AFVEWLIK([εLys-γGlu-γGlu-γGlu-γGlu-γGlu-γGlu-γGlu-C20 diacid])GGPSSGASLRHYYNWLTRQRY-NH2 (also: TFA salt) [Compound 225] | 0.28 nM | 1.23 nM
21 | Y[Aib]EGTFTSDYSI[Aib]LEKQAQ[Aib]AFVQWLIK([εLys-Glu-Glu-Glu-Glu-Glu-C20 diacid])GGPSEGASLRHYYNWLTRQRY-NH2 (also: TFA salt) [Compound 240] | 0.33 nM | 1.97 nM
22 | Y[Aib]EGTFTSDYSI[Aib]LEKQAQ[Aib]AFVEWLIK([εLys-γGlu-γGlu-γGlu-γGlu-γGlu-C20 diacid])GGPEEGASLRHYYNWLTRQRY-NH2 (also: TFA salt) [Compound 230] | 0.28 nM | 1.43 nM

Target: T2, NPY2 receptor
Assay: cell-based or functional assay

Row | Binder | EC50 hNPY2R 0.5% hP (CreLuc) | EC50 hNPY2R 100% hP (CreLuc)
23 | B1 | 9.6 nM | 30.1 nM
24 | B2 | 12.6 nM | 27.1 nM
25 | B3 | 16.6 nM | 34.1 nM
26 | B4 | 25.1 nM | 48.1 nM
27 | B5 | 15.3 nM | 36.8 nM
28 | B6 | 18 nM | 45.5 nM
29 | B7 | 13.5 nM | 58.3 nM
30 | Y[Aib]EGTFTSDYSI[Aib]LEKQAQ[Aib]AFVEWLIK([AEEA-AEEA-γGlu-γGlu-γGlu-γGlu-C20 diacid])GGPSEPASLRHYYNWLTRQRY-NH2 (also: TFA salt) [Compound 226] | 11.4 nM | 46.2 nM
31 | Y[Aib]EGTFTSDYSI[Aib]LEKQAQ[Aib]AFVEWLIK([εLys-γGlu-γGlu-γGlu-γGlu-γGlu-γGlu-γGlu-C20 diacid])GGPSSGASLRHYYNWLTRQRY-NH2 (also: TFA salt) [Compound 225] | 14.9 nM | 50.2 nM
32 | Y[Aib]EGTFTSDYSI[Aib]LEKQAQ[Aib]AFVQWLIK([εLys-Glu-Glu-Glu-Glu-Glu-C20 diacid])GGPSEGASLRHYYNWLTRQRY-NH2 (also: TFA salt) [Compound 240] | 10.7 nM | 77.5 nM
33 | Y[Aib]EGTFTSDYSI[Aib]LEKQAQ[Aib]AFVEWLIK([εLys-γGlu-γGlu-γGlu-γGlu-γGlu-C20 diacid])GGPEEGASLRHYYNWLTRQRY-NH2 (also: TFA salt) [Compound 230] | 15.4 nM | 59.1 nM
